Source: patent US20140148387A1

Tests used:
[1] = molecular target: T1, activine type IIB receptor (ActRIIB) extracellular domain; experiment: SPR, BIAcore 2000; analyte Ala-BMP-2, ligand ActRIIBecd; freeze-dried preparation preserved at 5 ± 3° C. for 3 months
T1 sequence (Q13705 19-137, species assumed, looked up): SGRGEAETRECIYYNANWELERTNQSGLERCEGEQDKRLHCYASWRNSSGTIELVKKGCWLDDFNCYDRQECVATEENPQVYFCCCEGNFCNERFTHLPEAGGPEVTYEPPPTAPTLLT

[2] = molecular target: T1, activine type IIB receptor (ActRIIB) extracellular domain; experiment: SPR, BIAcore 2000; analyte Ala-BMP-2, ligand ActRIIBecd; freeze-dried preparation preserved at 25 ± 2° C., relative humidity 60 ± 5%, for 3 months
[3] = molecular target: T1, activine type IIB receptor (ActRIIB) extracellular domain; experiment: SPR, BIAcore 2000; analyte Ala-BMP-2, ligand ActRIIBecd; redissolved freeze-dried preparation at start of test
[4] = molecular target: T1, activine type IIB receptor (ActRIIB) extracellular domain; experiment: SPR, BIAcore 2000; analyte Ala-BMP-2, ligand ActRIIBecd; freeze-dried preparation preserved at 40 ± 2° C., relative humidity 75 ± 5%, for 3 months

- Biacore assay, relative value to provisional reference substance of Ala-BMP-2 as 100% [1]: 100%
- Biacore assay, relative value to provisional reference substance of Ala-BMP-2 as 100% [2]: 98.9%
- Biacore assay, relative value to provisional reference substance of Ala-BMP-2 as 100% [3]: 98.2%
- Biacore assay, relative value to provisional reference substance of Ala-BMP-2 as 100% [4]: 97.7%
B1: active type human bone morphogenetic protein-2 homodimer added with an alanine residue to the N-terminus (ligand)
chain: AQAKHKQRKRLKSSCKRHPLYVDFSDVGWNDWIVAPPGYHAFYCHGECPFPLADHLNSTNHAIVQTLVNSVNSKIPKACCVPTELSAISMLYLDENEKVVLKNYQDMVVEGCGCR
